Tested on: MS2 coat protein
Assay: apparent KD of MS2 coat protein; higher = weaker reporter binding
Details: Eterna round: R107
Method: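 RNA-MaP round R107: designed RNA switches with theophylline, tryptophan, arginine or FMN aptamers are transcribed on-chip within common flanks. They are titrated with SNAP-549-labelled MS2 coat protein in RNA-MaP buffer (100 mM Tris pH 7.5, 80 mM KCl, 4 mM MgCl2), without ligand or with the indicated ligand. Median apparent KD per design.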

[1] = input ligand: theophylline 20 uM
[2] = input ligand: theophylline 2 mM
[3] = input ligand: tryptophan 2.4 mM

Sequence | apparent KD of MS2 coat protein (input ligand: arginine 13.2 mM) [nM] | apparent KD of MS2 coat protein (input ligand: none) [nM] | apparent KD of MS2 coat protein [1] [nM] | apparent KD of MS2 coat protein [2] [nM] | apparent KD of MS2 coat protein [3] [nM]
ACAUGAGGAUCACCCAUGUAAUUGCCGGAAGGAGCGUCAUUAAGGACAGGUAGGUCGCUGGUAGGGUCGUCGGUUACGGCGGCCA [SSArg A #10] | 13.3 | 11.1 | 16.8 | 13 | 13.7
ACAUGAGGAUCACCCAUGUACAUAAGGGAAGGAGCGCGGUGAAACGCAGGUAGGUCGCCCAUAAUAUCUAACAUUAAAUUCAUGU [LeftA3] | 16.8 | 16.6 | 27.9 | 20 | 18.8
ACAUGAGGAUCACCCAUGUAGCCUAGGGAAGGAGCGGCGUAAGAGCCAGGUAGGUCGCCCGCAUGAGGAUCACCCAUGUCGAGGG [Same State Arginine A GF10] | 30.9 | 38 | 40.9 | 33.1 | 29.3
ACAUGAGGAUCACCCAUGUAGCCUAGGGAAGGAGCGUCGUAAGAGACAGGUAGGUCGCCCGCAUGUGGAUCACCCAUGUCGAGGG [SSArg A #11] | 27.4 | 37.5 | 48.3 | 43.6 | 38.7
ACAUGAGGAUCACCCAUGUAGUGGCACGAUACCAGCUGAUCCCGUGGCCCUUGGCAGCGUCCGGUGUGGUGCGCCGGGAUGGAGC [ZSZMULLIN] | 21.8 | 28.4 | 50.8 | 40.7 | 35.6
ACAUGAGGAUCACCCAUGUCACUCGUGUUCCGAGGACCGGUACGGCCGCCACUCGGUCCUCGCGAGGAUGGUCAAAGACUAUCCA [Omei Trp A SS B v2] | 37.1 | 75.2 | 66.8 | 71.4 | 48.6
ACAUGAGGAUCACCCAUGUGAUGGCGCGAUACCAGCUGAUCCCGUGGCCCUUGGCAGCGUCCGGUGUGGUCCGGCGGGUGGGACG [khkmullin] | 91.4 | 20.8 | 31.7 | 31 | 24.2
ACAUGAGGAUCACCCAUGUGGCGACUUGAUACCAGACCCGCACUAGUCCCUUGGCAGCAACUACGUGUGGGACACCCAUGUGAAG [aszkullin] | 17.5 | – | 23.9 | – | 20.2
ACAUGAGGAUCACCCAUGUGUGUAAAUCCUCGAGGACCGGUACGGCCGCCACUCGAUCGAGUGUAAGUUGAAUGUAACAUUCAAC [whbob_SS_trypto A_2s8] | 42.6 | – | 118 | 108 | –
ACAUGAGGAUCACCCAUGUUCCUCAUUGAUACCAGUGAAUUUAGACGCCCUUGGCAGCGAGUUUUUUUAUAAGAUUUUUUUUUUU [6.I] | 239 | – | 839 | – | 916
ACAUGAGGAUCACCCAUGUUCCUCGCCGAUACCAGUGAAGAAGAACGCCCUUGGCAGCGGAAAGAAUAUUUUGGAGAUGAGAUAU [6.V] | 70.5 | – | 272 | – | 220
ACAUGAGGAUCACCCAUGUUUGAUGUUCCUCGAGGACCGGUACGGCCGCCACUCGAACGAGUGGCACGCGAGUGCGCACUCGCGU [aTa] | 14.3 | 11.3 | 19.9 | 15.6 | 13.6
ACAUGAGGCUCACCCAUGUGUAGUGGGUGGCGAGGACCGGUACGGCCGCCACUCGGCAACAUGAGGAUCACCCAUGUAAGGCCCU [RNA Blob] | 39.6 | 133 | 134 | 148 | 35
ACAUGAGGGAUGGAUACCAGCGACAUGAGGAUCACCCAUGUAUGAGGAUCACCCAUGUUAUGCCCUUGGCAGCCACAAACAUGAG [UUYMULLIN] | 24.8 | 14.3 | 20 | 117 | 16.9
ACCCAUAAUUGGGCGGGUGGAUUGAGUGAUACCAGUCGUAUACAUGACCCUUGGCAGCACCGACAUGAGGAUCACCCAUGUGCCA [Same State Theophylline A GF23] | 25.9 | – | 38.4 | – | 46
ACCCUAGCGAUCGCUCGCUAGGGUGCGGAUACCAGCGAGGUCCAUCGCCCUUGGCAGCCGAACAUGAGGAUCACCCAUGUCGGUA [#1 Same State - Theophylline A Attempt #19 (HarryS)] | 10.1 | – | 11.6 | – | 10.4

From the supplement of paper PMC9170038
